Results taken from article PMC5058683, “Structural basis for small molecule targeting of the programmed death ligand 1 (PD-L1)” (Oncotarget, 2016).

Molecular target: human PD-1 (33-150, Cys93 exchanged to serine) (human, UniProt Q15116 33-150, Cys93 exchanged to serine)
Experiment: NMR titration; AIDA assay: 15N-labelled PD-1 (0.2 mM) slightly overtitrated with unlabelled PD-L1; 1H-15N HMQC linewidths; 300 K; complex mass estimated from relaxation time analysis
Conditions: both partners purified

human PD-1 (33-150, Cys93 exchanged to serine), sequence (Q15116 other isoform, or with tags, fused parts or gaps Cys93 exchanged to serine | Cys93 exchanged to serine): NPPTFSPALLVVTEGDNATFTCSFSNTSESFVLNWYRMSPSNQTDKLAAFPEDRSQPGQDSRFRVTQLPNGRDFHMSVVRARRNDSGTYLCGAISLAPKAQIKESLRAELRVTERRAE

B1: human PD-L1 (amino acids 18-134) (domain or fragment)
chain: AFTVTVPKDLYVVEYGSNMTIECKFPVEKQLDLAALIVYWEMEDKNIIQFVHGEEDLKVQHSSYRQRARLLKDQLSLGNAALQITDVKLQDAGVYRCMISYGGADYKRITVKVNAPY
notes: human PD-L1 (programmed death ligand 1), amino acids 18-134, the distal extracellular IgG like domain; Cloned into pET-21b; The vector may add a C-terminal His tag with a short linker (surmised), and the deposited entries 5J89 and 5J8O would show it; Made in bacteria, so not glycosylated; Uniformly 15N-labelled in some NMR experiments; also called hPD-L1; programmed death ligand 1
With B1 the “stoichiometry N” value was 1.
